Experimental data reported in the DeepSol protein solubility set.

Experiment: soluble on expression in E. coli; label from the status in PepcDB or PDB records

Row | Sequence | soluble on expression in E. coli
1 | THALEPSKPLAHDEKPITIEVVSMDWKWFFIYPEQGIATVNEIAFPANTPVYFKVTSNSVMHSFFIPRLGSQIYAMAGMQTRLHLIANEPGTYDGICAEICGPGHSGMKFKAIATPDRAAFDQWVAKAKQSPNTMSDMAAFEKLAAPSEYNQVEYFSNVKPDLFADVINKFMAHGKSMDMTQPEGEHSAHEGMEGMDMSHAESAH | soluble
2 | MFLSRGFNAFIAKPIDVMQLDAVLNTWVRDRKSIEILKQAEMIAPLIIENANQNIFDSVQIEGLDLVRGKKKYNNDAAYLDILRSWHKHTPALLEKMRNPVFENLSEYAITVHGIKGASLGICADEISSKAEELEHYAKSGNIGKVQADNSMFIGMAESLLANIGELLEKFDVGKKEKPKKHAPDPALLDRLLEAAKSYKSTLMEETMCSIESYDYDSDMELVTWLRQQMDDLEYDAIRQKLESRMPGFVET | not soluble
3 | MGSDKIHHHHHHMIATTIAMDFCQTVTPSEIATVIDSYARGWFLMADEDSSDLGWYRSRDRCLIPLDNRFRYPRSLRRVLNQQRFEFAISRDFLGTIAGCADRPSTWISDELAEIYQQLQRYGWALSWEAWQGDRLVGGILGVAIGSLFIGESMFYHEPEASKAALVTLVQALQQGGWQVFDVQLTNPHLERFGSFCVSDRQYSAQIQTAIARPAKLVTPTGDRFASQPHSSAASDHG | not soluble
4 | MAHHHHHHMSRLKHVEWDEKNLEANAEYQRQHPVTIHITEPKTPYSYADGDDLEAEEEGLLKWDPAVNAKVKEIKEQIAGDFSDRPVAPIAKSGRPMLAEGTSTGELAQQQHQKEFRKMRKAVYADEGAMFKRALSHECKDEDDE | not soluble
5 | MKTTGAGQLGTQLGKIKTSLRQQIHTGVVSQGQKLPSERELSELFSTTRITIKDALVSLETEGLIYREERRGWYVSPERICYNPLSRSHFHQMIREQHRIAATQLISVRSEMAAGDYAKALDIEQMTPIHIIERLRCIDGRAVLFVENVLKASLFDGILAENLTMSLTGIYREKYGYETMRSRFDVIPTSAPAHVAKALNLAEGQPVLKICRVNYKQDGELMDCELEYWRPDAVMIRIDSVG | not soluble
6 | MSLTLRIALFGAGRIGHVHAANIAANPDLELVVIADPFIEGAQRLAEANGAEAVASPDEVFARDDIDGIVIGSPTSTHVDLITRAVERGIPALCEKPIDLDIEMVRACKEKIGDGASKVMLGFNRRFDPSFAAINARVANQEIGNLEQLVIISRDPAPAPKDYIAGSGGIFRDMTIHDLDMARFFVPNIVEVTATGANVFSQEIAEFNDYDQVIVTLRGSKGELINIVNSRHCSYGYDQRLEAFGSKGMLAADNIRPTTVRKHNAESTEQADPIFNFFLERYDAAYKAELATFAQGIRDGQGFSPNFEDGVIALELANACLESAQTGRTVTLNPANEGHHHHHH | soluble
7 | MSLAYIYLMRHAKTVMNIEGRWQGINDSDIPEESLRHFEERIRFLAGKNIKAIYSSCLVRSIKSATVAASILGIDHIETVRGFNERDLGLMEGKTNDEIREKFGITDIYIASRAIESIPMVEPWPKFVGRVMATLQAFSGRDGSLVITHGGVMRAIYNTLTGSNERRVIFDNGYILKLEFSGSWRISEIIGQEGHHHHHH | soluble
8 | MGSSHHHHHHSSGLVPRGSMAQGLIEVERKFLPGPGTEERLQELGGTLEYRVTFRDTYYDTPELSLMQADHWLRRREDSGWELKCPGAAGVLGPHTEYKELTAEPTIVAQLCKVLRADGLGAGDVAAVLGPLGLQEVASFVTKRSAWKLVLLGADEEEPQLRVDLDTADFGYAVGEVEALVHEEAEVPTALEKIHRLSSMLGVPAQETAPAKLIVYLQRFRPQDYQRLLEVNSS | soluble
9 | MFFIHKLFPAKLIRRYKRFLADVKREDQHIFTVSVPNTGSMLGLTTPNSNIWLSYHNNPKRRYAYQLEIVEANNTLVGINTTLPNKLALEAIQNNLLPELNGYKTILKEQRYGIQSRIDFLLRDDILPDCYLEIKNVHFIRQKGLAEFPDTETKRGTRHLEELIKIVQQGKRAVMLYIIQREDCSAFTICRDLDPTYGRKFDLALESGVEFYAIKCQVSVEGIFPIQQVKIENRK | not soluble
10 | MSYLSAIENQENMVVKQEIKIEEEDDDYPLSTIDMAVQALIRNPHHNVDYICGVMIFGGSKNQFNELLNPVVVAQMSKQRKQKKVPVKNPAGEAKRGRGRPRKQSSEEKVQIPKVVVKFEPKKRGRPAGAAKWSQEVAVVLQKQPQRKRGRPLKIAKKIEPVFHQKKESKQNSEEKALIQQEAVKGEPKNRGRPCGAAERSREVVKKLQKQPPRKRGRPLKIAKNMEPEINQKKDTKQVHVCPICTLASKNGTCLCTKCQKWVHLKCTGIRSKQWNSQFQCKNCTC | not soluble
11 | YAGLSRFTLSYHNVEYKLFGYGTILNNTNFPGGSSGSAVFNKEKQLTSIYFGSLINVTTGNNRNVNLGLGQILRTYNTNNSKHS | not soluble
12 | MTNLETYFKNSQPLNEYIDGMKTNQDTVLSIYQSFELPEDDSRIKKIKEMNYSKVLVITEDWCGDAMMNLPILKHISEALNLEVRVFHRDDDTKLIDQYLTNGKSRAIPIFVFLNDQFEQETVWGPRANEVQKFVTDVRADKLPSKDHPDYADLEKETHLVISNRYKTDASFWKAVYNSILNKLENK | not soluble
13 | MKIGIFTDCYYPQINGVVTSTMNLQKELEKLNHEVYIITTTFPNFKDEDEKHIIRIPSIPFFKWSEFRIGLFLKHTKAYNKVKALNFDIVHTQTEFSMGNFGTFIAKDLNIPCIHTYHTVYEEYTHYISNFGKSPLKKVVRKLSKRYIAHFSGVIAPTEKTRDLLISYGVKNKIYVVPTGINLEKFKKDIPDAETNSLLKSFNIKKDSFKLIFLGRISKEKNIETLINIMPKIVSENNNIQLIIVGDGPDRLELEERVRYLDLQDNVIFTNRIPNDKVPIYYKAADLFISPSKTETQGLTILEAMAAGVPVLVYDDTNIKGLVLHKKTGLLFKENDELLDNIKFALNNKEEIQSYAKEAFKIAEDFSSANFAKKVERIYKELINQ | not soluble
14 | MPEQLKQRVETCYQQAEAFFKRRFPRPEVSFKLRGQKAGVAHLHENLLRFNLQLYRENQEDFLRQTVAHEVAHLVAHQLFGDRIQAHGEEWQLIMRGVYELPPNRCHNYDVQRRAVTRYIYRCPCPQSDFPFTAQRHKLVHQGRRYLCKRCREVLVYSGETRVE | soluble
15 | MKKIIAILLLVIGSIGIGKDLDQYESKRVFDKIIEVALTGDYEKYKNDKEMTNALEELVKASEYLDVHRIFSDGNKYIVLDVEEQGNRSILTVKAVYKIYRDISEEKYRQIMEREVLELMKYDMEEIDEKTYKKNVYNIITDIAGNDFEIKEEVIKMNMIKKEKWDMEDNSDLIQRLYPAIFYMMESLNKRYFKTSEEGNI | not soluble
16 | MPADRYATGNGFTGIIRTRHQTFKRHRSAHRRNGQNPIGLPARSRWQPAGNQQLLIFRRLMQNKKQPAQAVFLAASLTPTAAPSSLPVGKR | not soluble
17 | MGSDKIHHHHHHMTQMEMARKGVVSDEMKKVAEYEGVDVEIVRQKLAEGRAVLPKNKLHRIERPMIVGEGFSVKVNANIGTSQGFSSLEEEKEKARVAIEYGADSLMVLSTWGDLREIRRAIVEMSPVPVGSVPIYDSAVRSYQMKKNVVDFSEKDFFDMVIAHAEDGIDFMTIHVGVTRRVLDRIKSSRRVLKIVSRGGAIIAGWMIKNNKENPFYEHFDELLDIAKDYDITLSLGDGMRPGAVVDASDAQQFEELFVMGELVERAREKGVQVMLEGPGHVPLNEVEMNVRLMKKIGKGAPIFLLGPLPTDRAMGYDHIACAIGGALAGYYGADFLCYVTPSEHISLPDVEDVREGVIASKIAAIVADVARGNKKAWELEKKMALARKNFDWETMFSLSLGKDVAKKKYEERPYPDKGCSMCGPFCAIKIAEEFS | not soluble
18 | MEKNTIILGIETSCDETAVAVVKNGTEIIANVVASQIESHKRFGGVVPEIASRHHVEEITVVLEEALKEANITFDDIDAIAVTEGPGLVGALLIGVNAAKAVAFAHDIPLVGVHHIAGHIYANRLVKEVQFPLLSLVVSGGHTELVYMKEHGSFEVIGETRDDAAGEAYDKVARTLSMPYPGGPHIDRLAHEGKPTIDLPRAWLEPDSYDFSFSGLKSAVINTVHNAKQRGIEIAPEDLAASFQESVIDVLVTKASRAADAYNVKQVLLAGGVAANKGLRARLETEFAQKENVELIIPPLSLCTDNAAMIAAAGTIAYEQGKRATLALNANPGLDIEA | not soluble
19 | MANQKQVLDVQVSKGITTAQSNEHLRDRSEKAEKYAMSKGNYDPTRKRLNFEIAPGGKIHPIDTSRSIPKRMADILSHRGIKDPNEGLLEPKYRTVVNIIFGGSRQRMQELAFGTQQVDFEKGADNTRIERKRDIERWAKDVYSFVCGRYGEQNIAAFIVHLDELNPHIHCTLLPIKDSRFAYKEIFAGKDKFEYSARMKQLHTDFFAEVNTKWGMSRGTSISETGARHRTTEEYRRMLSEECTTIEDNIKLHQQVLGELQSDIRLAERRVKGLTTMVSNLEKQKTEKETLLSAAEYNLKENKGNAAELAIQIQMLEKELQGIIRQLADKQEKLQTADRQLIELKKDMGAIEERTEELKEEAYQYSRDVHSKVDSLFKDVLLESVISEYRNASAQMNVSERQLFDGSLVQSIAERGTEIMHCATMLFLGMVDDATTFAESHGGGGGGSDLKWGRDEDEDNRAWALRCMRMASRMMRSTIGKKSKRLEHHHHHH | not soluble
20 | MENRESAQRPHERLDAWRDSMELVEMIYRLTEVFPDQERYGLTAQLRRAAVSIPSNIAEGAARRSTPDYSRFLSIARGSLSELDTQVQIAARLGYSRSEDDQSVRRQVDLVFAKLTALMNALRRRGAA | soluble
21 | MGSDKIHHHHHHMLEFTLNFNDYGLKMGILTKLELDYEIDDIEKFLQFFRTMCDRFEPLIIKLGSDSVRYKEAIKELETLAHNTAWAARRLNLEEVTDFCVFCEEMMAQANRFNGPASDEFTDWMLLMSDQFEKYCRSYENDDSVLAVFNPLIVNVPNIISK | not soluble
22 | MFSYTDTILSIMQRIEVYNEIFKAISKEVQEYGCNQAAHRRGRDTYMFCRNNVNRFFTEEMMFRKNLEPYYDKEATKILLEGLDTYKEGVFFWLEALSESCQVTDELKYQLGIRQKESSYLLINQACKEACEGIQSAHSVHKM | not soluble
23 | SSSTLGKLSNQVEETLPLLKKVPANYFHICSAILMGFSLSKSATQVSAIHMDSKVDDHLIRGTEKSRLEPATQLFQNTKKIRLEDTNQENFTRIEGTGTGSLSGKALGSVVYVKESDGLEMTDVE | soluble
24 | MGSDKIHHHHHHMRRGELNERRDAIIRLLCAQDELSAQDLAARLNVSVQTIRTDLRELDEAALVQRRHGRVRLRQPSENIGYAPRMSVARSEKQQIAMAVKPMIEDGSRVALGTGTTVEACARQLAASHRDLFVATNNIHAVIALQGASGVSVSLAGGAVRLRDLDFVGAASRAFFADYMVDIAIFSCGGLSLSGDVLDYNTDEIAAREAISTCATRRVLVVDREKFGRALPCRKHMIWDYDVVVTGADFPREIMRKCQEAGCEVLRVATDERPLRA | not soluble
25 | MSYQVTTLQARKDMARARLGQIPLPRITHIAFGTGGHLPGDVLTPVKPSETATSLEQEVARFPIASAVLKNDTTVEYKVVIPKGALSGVVLTEQALIDQNGKVVAIKTFGAKKKEPEDEFTFTWEEDF | not soluble
26 | MDLFQAMRVYVKVVEAGSLTAAAQACSISTTMVGNHLRALEQRLGVSLLQRTTRRQRLTEFGTAYYERCLEVLGLVAESEQLAEQAQGDPSGTLRITAPLTFGSEVLAPALAGFSLRFPEVKLDLVLTNQRLDMIDNGFDIAIRLGNIPQSSPLIARLMQDYTLTICAAPSYLARHGTPAHPEDLGAHNCLAFSYPAGDEWRTAGTQWRMTGPEGEVLVDVDGSMVANTSAGLYQAACAGMGVVMLPDALVQRDLQEGRLVALLPGYHLPRRPMNLLYVQDRYRLPKVRSFVEYAMGLWGR | not soluble
